Experimental data from US20160060354A1 (published 2016).

Target: Her (trivalent GalNAc glycan-conjugated)
Experiment: SPR

koff: 1.83e-08 s⁻¹
B1: ASGPR subunit H1 (receptor)
chain: QNSQLQEELRGLRETFSNFTASTEAQVKGLSTQGGNVGRKMKSLESQLEKQQKDLSEDHSSLLLHVKQFVSDLRSLSCQMAALQGNGSERTCCPVNWVEHERSCYWFSRSGKAWADADNYCRLEDAHLVVVTSWEEQKFVQHHIGPVNTWMGLHDQNGPWKWVDGTDYETGFKNWRPEQPDDWYGHGLGGGEDCAHFTDDGRWNDDVCQRPYRWVCETELDKASQEPPLL
